Experimental data as given in patent publication US20090318342A1, “Compounds” (IMPERIAL INNOVATIONS LIMITED, priority 2005, published 2009).

T1: human ADAMTS-4 lacking the C-terminal spacer domain (Homo sapiens, UniProt O75173)
T1 construct: Recombinant human ADAMTS-4 lacking the C-terminal spacer domain; made in house
T1 sequence (O75173 213-685 limits assumed): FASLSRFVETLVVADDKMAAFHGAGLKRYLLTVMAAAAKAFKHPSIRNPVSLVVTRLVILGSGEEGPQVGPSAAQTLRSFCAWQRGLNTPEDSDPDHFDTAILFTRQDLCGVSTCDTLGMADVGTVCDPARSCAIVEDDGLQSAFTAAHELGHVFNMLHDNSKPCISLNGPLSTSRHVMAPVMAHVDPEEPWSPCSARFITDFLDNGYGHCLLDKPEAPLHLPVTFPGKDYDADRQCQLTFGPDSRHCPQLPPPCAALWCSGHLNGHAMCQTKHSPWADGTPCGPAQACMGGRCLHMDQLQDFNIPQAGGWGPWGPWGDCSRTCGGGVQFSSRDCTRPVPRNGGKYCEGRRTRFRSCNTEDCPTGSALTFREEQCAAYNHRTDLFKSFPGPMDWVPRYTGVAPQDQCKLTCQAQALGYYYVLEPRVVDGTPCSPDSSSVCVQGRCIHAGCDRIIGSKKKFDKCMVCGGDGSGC

B1: -1A: N-TIMP-3 mutant with the addition of an N-terminal alanine extension (-1A) (protein)
chain: ACTCSPSHPQDAFCNSDIVIRAKVVGKKLVKEGPFGTLVYTIKQMKMYRGFTKMPHVQYIHTEASESLCGLKLEVNKYQYLLTGRVYDGKMYTGLCNFVERWDQLTLSQRKGLNYRYHLGCN
B2: N-TIMP-3: N-terminal inhibitory domain of TIMP-3 (residues 1 to 121), C-terminally His-tagged, wild-type (protein)
chain: CTCSPSHPQDAFCNSDIVIRAKVVGKKLVKEGPFGTLVYTIKQMKMYRGFTKMPHVQYIHTEASESLCGLKLEVNKYQYLLTGRVYDGKMYTGLCNFVERWDQLTLSQRKGLNYRYHLGCN

What was measured:
[1] = biological target: T1, human ADAMTS-4 lacking the C-terminal spacer domain; assay: ADAMTS-4 inhibition, bovine aggrecan digestion, anti-GELE Western blot; type: biochemical; settings: 0.5 nM ADAMTS-4, 1 mg/ml bovine aggrecan, 37° C., 2 h; read-out: Ki(app) ADAMTS-4
Protocol: ADAMTS-4 lacking the spacer domain (0.5 nM) was incubated with N-TIMP-3 mutants at the concentration indicated for 30 min and then incubated with 1 mg/ml of bovine aggrecan at pH 7.5 for 2 h at 37° C. The reaction was terminated with 10 mM EDTA and samples were deglycosylated and subjected to Western blotting analysis using antibodies that recognise the fragments with the C-terminal GELE1480 as described by Little et al. The bands were quantified by densitometric analyses.
Recombinant human ADAMTS-4 lacking the C-terminal spacer domain was prepared and expressed as described (Kashimagi, M. et al. J. Biol. Chem. 279, 10109-10119, 2004), and bovine cartilage aggrecan was purified according to Hascall and Sajdesa (J. Biol. Chem. 244, 2384-2396, 1969). Antibody that recognized the fragment with the C-terminal GELE was described by Kashiwagi et al (2004). To examine the inhibition of ADAMTS-4 by (-1A) N-TIMP-3 and N-TIMP-3(T2G), 0.5 nM ADAMTS-4 was incubated with a various concentration of the inhibitor for 30 mins at room temperature and then with 1 mg/ml of bovine aggrecan at 37° C. for 2 h. […] The products were then precipated with 10 vol. of acetone and subjected to Western blotting analysis with the anti-GELE antibody as primary antibody and developed as described by Little et al. The staining intensity of the band was quantified by densitometric analysis.

[2] = system: porcine articular cartilage; assay: Retinoic acid-stimulated porcine articular cartilage, GAG release; type: cell-based
Protocol: Porcine articular cartilage from the metacarpophalangeal joints of 3-9 month old pigs is dissected into small shavings approximately 3 mm long and 2-3 mm wide. After dissection, the cartilage is allowed to rest for 24 h at 37° C. under 5% CO2 in DMEM containing penicillin-streptomycin, amphotericin B, and 5% fetal calf serum. The medium is then replaced with fresh media and the cartilage is rested for a further 24-48 h. Each cartilage piece is then placed in one well of a round bottom 96-well plate with 200 μl of serum-free DMEM with or without 10-100 ng/ml IL-1α or 1 μM retinoic acid and various concentrations of each TIMP-3 mutant. After 3 days, all of the conditioned media are harvested and stored at −20° C. until use.
(§1) GAG released into the conditioned media is measured in duplicate using a modification of the dimethylmethylene blue (DMMB) assay as described in Farndale et al.. Shark chondroitin sulfate (0-2.62 μg) is used as standard. The % of total GAG released into the medium is calculated as follows: % of total GAG released=(total GAG in the medium)/(total GAG in the medium+total GAG remaining in the cartilage).

[3] = system: porcine articular cartilage; assay: IL-1α-stimulated porcine articular cartilage degradation, GAG release (DMMB); type: cell-based; settings: IL-1α 10 ng/ml, 3 days
Protocol: FIG. 7. Inhibition of IL-1a stimulated porcine articular cartilage degradation by N-terminal mutants of N-TIMP-3. Porcine articular cartilage pieces were cultured for three days. Cartilage was stimulated with IL-1α (10 ng/ml) with TIMPs at the concentrations indicated. Glycosaminoglycan (GAG) release in the media was measured by dimethyl methylene blue (DMMB).
Porcine articular cartilage from the metacarpophalangeal joints of 3-9 month old pigs is dissected into small shavings approximately 3 mm long and 2-3 mm wide. After dissection, the cartilage is allowed to rest for 24 h at 37° C. under 5% CO2 in DMEM containing penicillin-streptomycin, amphotericin B, and 5% fetal calf serum. The medium is then replaced with fresh media and the cartilage is rested for a further 24-48 h. […]
GAG released into the conditioned media is measured in duplicate using a modification of the dimethylmethylene blue (DMMB) assay as described in Farndale et al.. […] The % of total GAG released into the medium is calculated as follows: % of total GAG released=(total GAG in the medium)/(total GAG in the medium+total GAG remaining in the cartilage).
Porcine articular cartilage pieces were cultured for 3 days. […] Glycosaminoglycan (GAG) release in the media was measured by dimethyl methylene blue (DMMB).

[4] = system: bovine nasal cartilage explants; assay: IL-1α-stimulated bovine nasal cartilage explants, GAG release; type: cell-based; settings: 3 days
Protocol: as §1
Bovine nasal cartilage explants were stimulated with IL-1α in the presence or absence of N-TIMP-1, TIMP-2, or N-TIMP-3 for 3 days.

Molecule | Ki [1] | Inhibition of retinoic acid-stimulated GAG release [2] | Inhibition of IL-1α stimulated cartilage degradation (GAG release) [3] | Inhibition of IL-1α-stimulated GAG release [4]
B1 | 18 nM | – | – | –
B2 | – | inhibited by N-TIMP-3, but to a lesser extent compared with the IL-1α-stimulated cartilage | dose dependently inhibited degradation | significantly inhibited
